Here are results for 17 molecules from US20240343809A1 (EXCELMAB, published 2024).

B1: affinity-matured B7-H3 antibody 42A1 (antibody, V domains shown)
VH: QVQLVQSGAEVKKPGSSVKVSCKASGGTGGIYLINWVRQAPGQGLEWMGGIIPLFGTANYAQKFQGRVTITADESTSTAYMELSSLRSDDTAVYYCARDQVVATSGVNFGMDVWGQGTTVTVSS
VL: DIQMTQEPSLTTSPGGTVTLTCRSSTGAVTTSNYANWVQEKPGQAPRGLIGGTNKRAPGTPARFSGSLIGGKAALTITGVQPEDEAIYFCALWYSNLWVFGGGTKLEIK
notes: Full antibody expressed in 293F cells, protein A purified; VH assembled from the framework and CDR entries
B2: affinity-matured B7-H3 antibody 49C8 (antibody, V domains shown)
VH: QVQLVQSGAEVKKPGSSVKVSCKASGGTFSNYAINWVRQAPGQGLEWMGGIIPKFRSQNYAQKFQGRVTITADESTSTAYMELSSLRSDDTAVYYCARDQVVATSGVNFGMDVWGQGTTVTVSS
VL: DIQMTQEPSLTTSPGGTVTLTCRSSTGAVTTSNYANWVQEKPGQAPRGLIGGTNKRAPGTPARFSGSLIGGKAALTITGVQPEDEAIYFCALWYSNLWVFGGGTKLEIK
notes: as for B1
B3: affinity-matured B7-H3 antibody 50A1 (antibody, V domains shown)
VH: QVQLVQSGAEVKKPGSSVKVSCKASGGTFSNYAINWVRQAPGQGLEWMGGIIPLFGTANYAQKFQGRVTITADESTSTAYMELSSLRSDDTAVYYCARDQVVPLSGVNFGMDVWGQGTTVTVSS
VL: DIQMTQEPSLTTSPGGTVTLTCRSSTGAVTTSNYANWVQEKPGQAPRGLIGGTNKRAPGTPARFSGSLIGGKAALTITGVQPEDEAIYFCALWYSNLWVFGGGTKLEIK
notes: as for B1
B4: affinity-matured B7-H3 antibody 49D12 (antibody, V domains shown)
VH: QVQLVQSGAEVKKPGSSVKVSCKASGGTFSNYAINWVRQAPGQGLEWMGGIIPRFASRNYAQKFQGRVTITADESTSTAYMELSSLRSDDTAVYYCARDQVVATSGVNFGMDVWGQGTTVTVSS
VL: DIQMTQEPSLTTSPGGTVTLTCRSSTGAVTTSNYANWVQEKPGQAPRGLIGGTNKRAPGTPARFSGSLIGGKAALTITGVQPEDEAIYFCALWYSNLWVFGGGTKLEIK
notes: as for B1
B5: affinity-matured B7-H3 antibody 49E1 (antibody, V domains shown)
VH: QVQLVQSGAEVKKPGSSVKVSCKASGGTFSNYAINWVRQAPGQGLEWMGGIIPVFRSVNYAQKFQGRVTITADESTSTAYMELSSLRSDDTAVYYCARDQVVATSGVNFGMDVWGQGTTVTVSS
VL: DIQMTQEPSLTTSPGGTVTLTCRSSTGAVTTSNYANWVQEKPGQAPRGLIGGTNKRAPGTPARFSGSLIGGKAALTITGVQPEDEAIYFCALWYSNLWVFGGGTKLEIK
notes: as for B1
B6: affinity-matured B7-H3 antibody 48E9 (antibody, V domains shown)
VH: QVQLVQSGAEVKKPGSSVKVSCKASGGTGGAYLINWVRQAPGQGLEWMGGIIPLFGTANYAQKFQGRVTITADESTSTAYMELSSLRSDDTAVYYCARDQVVATSGVNFGMDVWGQGTTVTVSS
VL: DIQMTQEPSLTTSPGGTVTLTCRSSTGAVTTSNYANWVQEKPGQAPRGLIGGTNKRAPGTPARFSGSLIGGKAALTITGVQPEDEAIYFCALWYSNLWVFGGGTKLEIK
notes: as for B1
B7: affinity-matured B7-H3 antibody 47C8 (antibody, V domains shown)
VH: QVQLVQSGAEVKKPGSSVKVSCKASGGTFSNYAINWVRQAPGQGLEWMGGIIPLFGTANYAQKFQGRVTITADESTSTAYMELSSLRSDDTAVYYCARDIEVMASGVNFGMDVWGQGTTVTVSS
VL: DIQMTQEPSLTTSPGGTVTLTCRSSTGAVTTSNYANWVQEKPGQAPRGLIGGTNKRAPGTPARFSGSLIGGKAALTITGVQPEDEAIYFCALWYSNLWVFGGGTKLEIK
notes: as for B1
B8: affinity-matured B7-H3 antibody 43G5 (antibody, V domains shown)
VH: QVQLVQSGAEVKKPGSSVKVSCKASGGTVRPALINWVRQAPGQGLEWMGGIIPLFGTANYAQKFQGRVTITADESTSTAYMELSSLRSDDTAVYYCARDQVVATSGVNFGMDVWGQGTTVTVSS
VL: DIQMTQEPSLTTSPGGTVTLTCRSSTGAVTTSNYANWVQEKPGQAPRGLIGGTNKRAPGTPARFSGSLIGGKAALTITGVQPEDEAIYFCALWYSNLWVFGGGTKLEIK
notes: as for B1
B9: affinity-matured B7-H3 antibody 49C7 (antibody, V domains shown)
VH: QVQLVQSGAEVKKPGSSVKVSCKASGGTFSNYAINWVRQAPGQGLEWMGGIIPNFYSVNYAQKFQGRVTITADESTSTAYMELSSLRSDDTAVYYCARDQVVATSGVNFGMDVWGQGTTVTVSS
VL: DIQMTQEPSLTTSPGGTVTLTCRSSTGAVTTSNYANWVQEKPGQAPRGLIGGTNKRAPGTPARFSGSLIGGKAALTITGVQPEDEAIYFCALWYSNLWVFGGGTKLEIK
notes: as for B1
B10: affinity-matured B7-H3 antibody 48D10 (antibody, V domains shown)
VH: QVQLVQSGAEVKKPGSSVKVSCKASGGTRPAALINWVRQAPGQGLEWMGGIIPLFGTANYAQKFQGRVTITADESTSTAYMELSSLRSDDTAVYYCARDQVVATSGVNFGMDVWGQGTTVTVSS
VL: DIQMTQEPSLTTSPGGTVTLTCRSSTGAVTTSNYANWVQEKPGQAPRGLIGGTNKRAPGTPARFSGSLIGGKAALTITGVQPEDEAIYFCALWYSNLWVFGGGTKLEIK
notes: as for B1
B11: affinity-matured B7-H3 antibody 49F6 (antibody, V domains shown)
VH: QVQLVQSGAEVKKPGSSVKVSCKASGGTFSNYAINWVRQAPGQGLEWMGGIIPGFDAVNYAQKFQGRVTITADESTSTAYMELSSLRSDDTAVYYCARDQVVATSGVNFGMDVWGQGTTVTVSS
VL: DIQMTQEPSLTTSPGGTVTLTCRSSTGAVTTSNYANWVQEKPGQAPRGLIGGTNKRAPGTPARFSGSLIGGKAALTITGVQPEDEAIYFCALWYSNLWVFGGGTKLEIK
notes: as for B1
B12: affinity-matured B7-H3 antibody 48B12 (antibody, V domains shown)
VH: QVQLVQSGAEVKKPGSSVKVSCKASGGTTGRYLINWVRQAPGQGLEWMGGIIPLFGTANYAQKFQGRVTITADESTSTAYMELSSLRSDDTAVYYCARDQVVATSGVNFGMDVWGQGTTVTVSS
VL: DIQMTQEPSLTTSPGGTVTLTCRSSTGAVTTSNYANWVQEKPGQAPRGLIGGTNKRAPGTPARFSGSLIGGKAALTITGVQPEDEAIYFCALWYSNLWVFGGGTKLEIK
notes: as for B1
B13: affinity-matured B7-H3 antibody 49H5 (antibody, V domains shown)
VH: QVQLVQSGAEVKKPGSSVKVSCKASGGTFSNYAINWVRQAPGQGLEWMGGIIPDFNSANYAQKFQGRVTITADESTSTAYMELSSLRSDDTAVYYCARDQVVATSGVNFGMDVWGQGTTVTVSS
VL: DIQMTQEPSLTTSPGGTVTLTCRSSTGAVTTSNYANWVQEKPGQAPRGLIGGTNKRAPGTPARFSGSLIGGKAALTITGVQPEDEAIYFCALWYSNLWVFGGGTKLEIK
notes: as for B1
B14: affinity-matured B7-H3 antibody 48G2 (antibody, V domains shown)
VH: QVQLVQSGAEVKKPGSSVKVSCKASGGTSRPVLINWVRQAPGQGLEWMGGIIPLFGTANYAQKFQGRVTITADESTSTAYMELSSLRSDDTAVYYCARDQVVATSGVNFGMDVWGQGTTVTVSS
VL: DIQMTQEPSLTTSPGGTVTLTCRSSTGAVTTSNYANWVQEKPGQAPRGLIGGTNKRAPGTPARFSGSLIGGKAALTITGVQPEDEAIYFCALWYSNLWVFGGGTKLEIK
notes: as for B1
B15: affinity-matured B7-H3 antibody 49B2 (antibody, V domains shown)
VH: QVQLVQSGAEVKKPGSSVKVSCKASGGTFSNYAINWVRQAPGQGLEWMGGIIPNFHSSNYAQKFQGRVTITADESTSTAYMELSSLRSDDTAVYYCARDQVVATSGVNFGMDVWGQGTTVTVSS
VL: DIQMTQEPSLTTSPGGTVTLTCRSSTGAVTTSNYANWVQEKPGQAPRGLIGGTNKRAPGTPARFSGSLIGGKAALTITGVQPEDEAIYFCALWYSNLWVFGGGTKLEIK
notes: as for B1
B16: affinity-matured B7-H3 antibody 49C3 (antibody, V domains shown)
VH: QVQLVQSGAEVKKPGSSVKVSCKASGGTFSNYAINWVRQAPGQGLEWMGGIIPNFESVNYAQKFQGRVTITADESTSTAYMELSSLRSDDTAVYYCARDQVVATSGVNFGMDVWGQGTTVTVSS
VL: DIQMTQEPSLTTSPGGTVTLTCRSSTGAVTTSNYANWVQEKPGQAPRGLIGGTNKRAPGTPARFSGSLIGGKAALTITGVQPEDEAIYFCALWYSNLWVFGGGTKLEIK
notes: as for B1
B17: affinity-matured B7-H3 antibody 48A6 (antibody, V domains shown)
VH: QVQLVQSGAEVKKPGSSVKVSCKASGGTRPPALINWVRQAPGQGLEWMGGIIPLFGTANYAQKFQGRVTITADESTSTAYMELSSLRSDDTAVYYCARDQVVATSGVNFGMDVWGQGTTVTVSS
VL: DIQMTQEPSLTTSPGGTVTLTCRSSTGAVTTSNYANWVQEKPGQAPRGLIGGTNKRAPGTPARFSGSLIGGKAALTITGVQPEDEAIYFCALWYSNLWVFGGGTKLEIK
notes: as for B1

The target of this assay is T1, human B7-H3 antigen, recombinant extracellular domain (ECD) (29-461) (human, UniProt Q5ZPR3 29-461).
T1 construct: range 29-461; Expressed in 293F cells as B7-H3-TEV-cFc-His fusion, cut with TEV protease and cleaned over a nickel column to give the human B7-H3 antigen; also called recombinant human B7-H3 antigen; hB7-H3
T1 sequence (looked up): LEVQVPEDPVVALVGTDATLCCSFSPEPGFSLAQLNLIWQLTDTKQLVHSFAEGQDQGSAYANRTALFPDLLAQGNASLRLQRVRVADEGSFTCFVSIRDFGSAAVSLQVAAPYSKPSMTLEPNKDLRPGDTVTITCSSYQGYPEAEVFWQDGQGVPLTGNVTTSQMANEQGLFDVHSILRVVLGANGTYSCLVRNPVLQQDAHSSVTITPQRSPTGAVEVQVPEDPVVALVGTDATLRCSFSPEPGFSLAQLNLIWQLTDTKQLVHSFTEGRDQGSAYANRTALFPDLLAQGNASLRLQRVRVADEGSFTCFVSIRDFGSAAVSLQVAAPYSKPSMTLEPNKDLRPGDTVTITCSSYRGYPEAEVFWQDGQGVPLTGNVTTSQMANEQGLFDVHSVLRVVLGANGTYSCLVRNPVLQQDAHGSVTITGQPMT
Kind of assay: ELISA, coated human B7-H3 antigen. On the procedure:
The binding activity of the 5D9 to B7-H3 antigen was analyzed by ELISA. Human B7-H3 antigens were coated on the 96-well plate and placed at 4° C. overnight. The antibody 5D9 and controls were diluted to 10 μg/mL, followed by 4-fold dilution gradients to generate a total of 8 different concentrations. The diluted samples and the wells coated antigen were incubated for 1h. After washing, HRP (horseradish peroxidase)-labeled goat anti-human IgG (H+L) secondary antibody was added to the plate and incubated for 1h. TMB (3,3′,5,5′-tetramethylbenzidine) solution was then added to each well after washing for chromogenesis. The absorbance was measured at OD₄₅₀ₙₘ with a microplate reader. Taking the logarithmic value of the sample concentration as the X-axis, and the absorbance OD₄₅₀ₙₘ value as the Y-axis, a dose-response curve was drawn to calculate the EC₅₀. The EC₅₀ represents the binding activity of the antibody to B7-H3 antigen. A negative control IgG group and a positive antibody Enoblituzumab control group were meanwhile set in the experiment.
ELISA was used to analyze the binding activity of affinity-matured variants to human B7-H3 antigen. By taking the logarithmic value of the sample concentration as the X-axis, and the absorbance OD₄₅₀ₙₘ value as the Y-axis, a dose-response curve was drawn to calculate the EC₅₀. The EC₅₀ represents the binding activity of the affinity-matured variants to B7-H3 antigen. A positive control Enoblituzumab and a negative control hIgG were set in the experiment.
Background: ELISA stands for enzyme-linked immunosorbent assay.
As usually defined, the EC50 is the concentration giving half of the maximal effect. With B1, the EC50 amounted to 0.0354 µg/mL.

B2: the half-maximal effective concentration (EC50) came to 0.0285 µg/mL.

Regarding B3, the EC50 was 0.0321 µg/mL.

Turning to B4, the EC50 came out at 0.0219 µg/mL.

In the case of B5, the EC50 is 0.0261 µg/mL.

B6: the EC50 is 0.0438 µg/mL.

With B7, the EC50 came out at 0.0426 µg/mL.

For the molecule B8, the EC50 worked out at 0.0279 µg/mL.

As to B9, the EC50 came out at 0.033 µg/mL.

Turning to B10, the EC50 stood at 0.0251 µg/mL.

For B11, the EC50 was 0.0309 µg/mL.

Regarding B12, the EC50 amounted to 0.0259 µg/mL.

Regarding B13, the EC50 was determined as 0.0336 µg/mL.

Take B14: the EC50 was determined as 0.0303 µg/mL.

B15: the EC50 is 0.0286 µg/mL.

For the molecule B16, the EC50 amounted to 0.0245 µg/mL.

Regarding B17, the EC50 stood at 0.0272 µg/mL.
